Experimental data: patent publication US7122363

Legend:
[1] = target: 63 kDa bovine brain CaM-PDE (expression product of p12.3a cDNA) (bovine) (UniProt Q01061); experiment: cell-based or functional assay
[2] = target: 59 kDa bovine lung CaM-PDE (expression product of p59KCAMPDE-2 cDNA) (bovine) (UniProt P14100); experiment: cell-based or functional assay
Sequence of 59 kDa bovine lung CaM-PDE (expression product of p59KCAMPDE-2 cDNA) (bovine) (P14100 other isoform, or with tags, fused parts or gaps limits assumed): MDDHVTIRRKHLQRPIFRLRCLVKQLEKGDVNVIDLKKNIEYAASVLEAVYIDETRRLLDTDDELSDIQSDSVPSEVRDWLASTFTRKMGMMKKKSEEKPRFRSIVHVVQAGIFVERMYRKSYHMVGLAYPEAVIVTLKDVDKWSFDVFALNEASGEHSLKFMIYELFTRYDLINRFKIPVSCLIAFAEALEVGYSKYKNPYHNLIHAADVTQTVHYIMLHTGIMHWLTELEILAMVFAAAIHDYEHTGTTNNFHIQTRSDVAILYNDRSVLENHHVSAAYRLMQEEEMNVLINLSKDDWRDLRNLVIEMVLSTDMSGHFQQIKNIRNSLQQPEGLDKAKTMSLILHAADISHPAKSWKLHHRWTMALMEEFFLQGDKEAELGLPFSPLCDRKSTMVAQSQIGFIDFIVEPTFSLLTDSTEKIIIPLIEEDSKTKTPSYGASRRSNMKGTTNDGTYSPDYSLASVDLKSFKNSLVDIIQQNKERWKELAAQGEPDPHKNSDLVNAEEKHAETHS

Sequence of 63 kDa bovine brain CaM-PDE (expression product of p12.3a cDNA) (bovine) (Q01061 whole entry): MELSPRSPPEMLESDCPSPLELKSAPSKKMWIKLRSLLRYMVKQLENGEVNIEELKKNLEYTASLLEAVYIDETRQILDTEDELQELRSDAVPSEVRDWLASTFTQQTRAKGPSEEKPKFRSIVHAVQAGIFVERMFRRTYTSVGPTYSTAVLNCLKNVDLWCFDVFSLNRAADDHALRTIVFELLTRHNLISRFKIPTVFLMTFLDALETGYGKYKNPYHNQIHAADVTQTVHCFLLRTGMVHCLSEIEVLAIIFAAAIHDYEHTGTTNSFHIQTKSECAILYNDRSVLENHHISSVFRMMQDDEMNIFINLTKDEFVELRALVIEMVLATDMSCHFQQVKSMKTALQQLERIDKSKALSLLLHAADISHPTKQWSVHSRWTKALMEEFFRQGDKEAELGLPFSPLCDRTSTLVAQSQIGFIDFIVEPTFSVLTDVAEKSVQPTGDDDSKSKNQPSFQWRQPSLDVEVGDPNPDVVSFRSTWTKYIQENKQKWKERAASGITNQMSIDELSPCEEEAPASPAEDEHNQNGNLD

For calmodulin, the CaM-stimulated cAMP phosphodiesterase activity (homogenates of transfected COS-7 cells) [1] was 15 fold, the CaM-stimulated cGMP phosphodiesterase activity (homogenates of transfected COS-7 cells) [1] was 12 fold and the cAMP hydrolytic activity (extracts of transfected COS-7 cells, 2 uM cAMP) [2] was 4 to 5 fold.
